Results from PMC3779530 (Innate immunity, 2013).
Read-outs that look alike come from different tables or passages of the source.

What was measured:
TLR4 ECD (Homo sapiens) [1] = molecular target: TLR4 ECD (Homo sapiens) (UniProt O00206); settings: cited from earlier work
Target sequence in this assay (O00206 24-631): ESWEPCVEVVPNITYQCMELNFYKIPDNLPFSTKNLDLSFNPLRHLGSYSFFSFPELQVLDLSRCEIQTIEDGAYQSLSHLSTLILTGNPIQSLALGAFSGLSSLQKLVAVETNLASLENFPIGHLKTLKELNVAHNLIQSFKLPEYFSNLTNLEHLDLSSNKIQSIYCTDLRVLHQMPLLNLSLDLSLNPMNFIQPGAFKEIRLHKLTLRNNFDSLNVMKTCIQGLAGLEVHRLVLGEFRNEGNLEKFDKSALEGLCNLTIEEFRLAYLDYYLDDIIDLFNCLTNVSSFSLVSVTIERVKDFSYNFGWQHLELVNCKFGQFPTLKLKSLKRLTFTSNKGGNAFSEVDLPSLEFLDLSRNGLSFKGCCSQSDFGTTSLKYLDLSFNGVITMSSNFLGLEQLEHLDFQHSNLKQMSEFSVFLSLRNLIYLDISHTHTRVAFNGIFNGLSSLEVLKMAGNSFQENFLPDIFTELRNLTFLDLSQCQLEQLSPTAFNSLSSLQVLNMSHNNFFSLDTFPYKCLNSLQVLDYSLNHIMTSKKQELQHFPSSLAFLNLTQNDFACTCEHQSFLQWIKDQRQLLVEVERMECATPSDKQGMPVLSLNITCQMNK

TLR4 ECD (Homo sapiens) [2] = molecular target: TLR4 ECD (Homo sapiens) (UniProt O00206); settings: cited from earlier work; remark: listed apart in the source
Target sequence in this assay (O00206 24-631 D299G/T399I): as the sequence (O00206 24-631) above, with D276G, T376I counted along it

[3] = molecular target: FLAG-tagged TLR4 ectodomain-vlr-Fc protein (not stated | hagfish) (UniProt O00206); experiment: radioligand binding
[4] = molecular target: full-length wild-type TLR4 on transiently transfected HEK293T cells (human, UniProt O00206 24-839); experiment: radioligand binding
Sequence of full-length wild-type TLR4 on transiently transfected HEK293T cells (O00206 24-839): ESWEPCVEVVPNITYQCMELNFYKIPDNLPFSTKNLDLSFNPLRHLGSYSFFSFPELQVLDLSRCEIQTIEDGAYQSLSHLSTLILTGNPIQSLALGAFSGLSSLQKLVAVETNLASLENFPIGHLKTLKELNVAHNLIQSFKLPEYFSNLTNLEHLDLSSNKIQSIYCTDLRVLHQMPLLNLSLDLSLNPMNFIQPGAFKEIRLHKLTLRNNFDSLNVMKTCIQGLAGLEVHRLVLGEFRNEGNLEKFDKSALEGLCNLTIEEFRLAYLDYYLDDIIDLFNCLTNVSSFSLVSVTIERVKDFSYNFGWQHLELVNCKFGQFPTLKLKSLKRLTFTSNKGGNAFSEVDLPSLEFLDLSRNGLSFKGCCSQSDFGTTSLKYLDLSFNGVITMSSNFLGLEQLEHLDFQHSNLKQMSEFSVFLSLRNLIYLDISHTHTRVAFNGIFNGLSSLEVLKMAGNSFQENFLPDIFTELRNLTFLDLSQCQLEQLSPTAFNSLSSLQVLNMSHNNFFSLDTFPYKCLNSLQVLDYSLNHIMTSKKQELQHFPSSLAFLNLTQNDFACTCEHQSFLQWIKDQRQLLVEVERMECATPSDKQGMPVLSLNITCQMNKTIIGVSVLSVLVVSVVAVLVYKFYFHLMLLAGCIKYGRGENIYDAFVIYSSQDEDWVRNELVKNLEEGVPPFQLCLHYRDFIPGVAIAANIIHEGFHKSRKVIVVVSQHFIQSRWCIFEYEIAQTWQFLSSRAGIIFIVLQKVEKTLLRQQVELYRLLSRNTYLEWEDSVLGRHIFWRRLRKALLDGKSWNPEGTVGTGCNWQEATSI

Row | Molecule | Kd (TLR4 ECD (Homo sapiens) [1]) [nM] | Kd (TLR4 ECD (Homo sapiens) [2]) [nM] | Kd [3] [nM] | Kd [4] [nM]
1 | LOS·MD-2 (from UniProt Q9Y6Y9) | 0.2 | 0.2 | – | –
2 | metabolically labeled LOS·MD-2 (monomeric complex of Neisseria meningitidis lipooligosaccharide and recombinant human His6-MD-2) (ligand) QKQYWVCNSSDASISYTYCDKMQYPISINVNPCIELKRSKGLLHIFYIPRRDLKQLYFNLYITVNTMNLPKRKEVICRGSDDDYSFCRALKGETVNTTISFSFKGIKFSKGKYKCVVEAISGSPEEMLFCLEFVILHQPNSN | – | – | 0.117 | 0.367 ± 0.136
